According to US6998383B2, “Inhibitors of receptor activator of NF-κB and uses thereof” (Research Development Corporation, priority 2001, dated 2006):

What was measured:
[1] = tested on: RAW264.7 cells; assay: RANKL-mediated osteoclast differentiation in RAW264.7 cells (TRAP staining); type: cell-based, mouse; conditions: RANKL, increasing amounts of peptide, 4-5 days (FIG. 2C)
Procedure: RAW264.7 cells were plated in 12-well plates and stimulated with RANKL (30 ng/ml) for 4 days. Cells were stained for TRAP essentially as described below. Photographs were taken using a 10× objective lens.
RAW cells were plated as described in FIG. 2A and treated with RANKL in the presence of 1, 30, or 100 μM of peptides as indicated. On day 4 cells were stained and evaluated as in FIG. 2A.
RAW264.7 cells were plated in 48-well plates in triplicate and treated with RANKL in the presence of increasing amounts of the indicated peptides. After 4-5 days, the cells were stained for TRAP and the total numbers of osteoclasts were counted as described below.
(§1) Primary bone marrow monocytes (BM) or RAW264.7 cells were cultured in 48-well dishes at a density of 1×10^5 cells/well or 2×10^3 cells/well, and then treated with the indicated factors at the beginning of the culture and during a medium change on day 3. Osteoclast formation was assessed by counting the total number of multi-nucleated (>3 nuclei), TRAP-positive cells present per well between day 7 and 10 (BM) or on day 5 (RAW264.7) (30).
The mouse macrophage cell line RAW264.7 express the receptor activator of NF-κB on their cell surface and when stimulated with the receptor activator of NF-κB ligand differentiate into multi-nucleated, tartrate resistant acid phosphatase (TRAP) positive osteoclasts after 4-5 days (FIG. 2A). To determine whether L-T6DP-1 could inhibit RANKL-mediated osteoclast differentiation, RAW264.7 cells were co-cultured with increasing concentrations of either L-T6DP-1. or T6DP-1 and 30 ng/ml RANKL for 4 days.

[2] = tested on: bone marrow-derived mouse monocytes; assay: RANKL and M-CSF-mediated osteoclast differentiation in bone marrow-derived mouse monocytes (TRAP staining); type: cell-based; conditions: M-CSF 10 ng/ml and RANKL 30 ng/ml (FIGS. 3A, 3B)
Procedure: After 6-7 days, the cells were fixed and stained for TRAP. The numbers of multi-nucleated, TRAP positive osteoclasts were counted.
Mouse-derived monocytes were plated in 48-well plates and costimulated as in FIG. 3A with murine M-CSF (10 ng/ml) and RANKL (30 ng/ml) in the absence (left panel) or presence of the indicated peptides. After 6-7 days, the cells were fixed and stained for TRAP. A representative field from each well was taken at a magnification of 10×.
as §1
To further support the results obtained from the RAW264.7 cell line, the ability of these peptides to inhibit RANKL-mediated osteoclast differentiation in primary mouse-derived monocytes was tested. Costimulation of bone marrow-derived monocytes with RANKL and M-CSF cause osteoclast differentiation after 7-10 days, as determined by staining multi-nucleated, TRAP positive osteoclasts (30). Similar to the results with RAW264.7 cells, both L-T6DP-1 and L-T6DP-2 inhibited the development of TRAP positive osteoclast in a dose-dependent manner and L-T6DP-1 was much more efficient (FIGS. 3A and 3B).

[3] = molecular target: T1, TRAF6 binding to the RANK cytoplasmic domain (Mus musculus, UniProt P70196); assay: Competitive GST-pull down assay, TRAF6 binding to RANK cytoplasmic domain; conditions: 100 μM peptide, FLAG-TRAF6 293 cell extract, GST-RANK cytoplasmic domain (FIG. 4C)
T1 construct: expressed in transfected cells; host or cells: human 293 cells (TRAF lysate); The GST-RANK fusion was purified as previously described
T1 sequence (P70196 1-530): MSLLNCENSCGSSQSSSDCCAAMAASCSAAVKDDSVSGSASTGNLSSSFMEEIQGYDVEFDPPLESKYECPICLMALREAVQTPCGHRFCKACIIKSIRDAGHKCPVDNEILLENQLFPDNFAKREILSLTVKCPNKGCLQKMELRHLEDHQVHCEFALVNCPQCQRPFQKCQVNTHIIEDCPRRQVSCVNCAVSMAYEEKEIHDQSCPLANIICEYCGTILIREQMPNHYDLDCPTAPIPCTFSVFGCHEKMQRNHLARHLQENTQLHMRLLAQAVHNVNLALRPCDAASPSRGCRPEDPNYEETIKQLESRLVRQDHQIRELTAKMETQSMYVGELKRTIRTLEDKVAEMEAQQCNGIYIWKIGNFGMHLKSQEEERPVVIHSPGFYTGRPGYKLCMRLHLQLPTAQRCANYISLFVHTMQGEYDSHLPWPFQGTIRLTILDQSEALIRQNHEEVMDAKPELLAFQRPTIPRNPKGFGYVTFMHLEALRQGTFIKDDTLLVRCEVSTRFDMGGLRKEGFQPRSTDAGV
Procedure: (§2) Cellular extracts from human 293 cells transfected with either FLAG-TRAF2, -TRAF5, or -TRAF6 were mixed with GST or GST-RANKed in the absence or presence of 100 μM of the indicated peptides. A GST-pull down assay was performed as described below. The bound TRAFs were visualized by immunoblotting with anti-FLAG antibodies.
(§3) Equivalent amounts of GST or GST-RANK cytoplasmic domain (GST-RANKed) fusion protein attached to 20 μl of glutathione agarose beads were mixed with lysates (50 μg) from 293 cells programmed to express the epitope-tagged TRAF protein and the indicated peptides in binding buffer (20 mM TRIS, pH 8, 150 mM NaCl, 1 mM DTT, 2 mM EDTA, and 0.1% NP-40) and allowed to rotate for 1 h at 4° C. The beads were collected by centrifugation, washed three times in binding buffer, and then washed once in low-salt buffer (20 mM TRIS, pH 8, 50 mM NaCl, and 1 mM DTT). Bound proteins were eluted with addition of SDS-sample buffer and boiled. The eluted proteins were subjected to 7.5% SDS-PAGE and western blot analysis was performed with anti-FLAG antibodies.
(§4) The cytoplasmic domain of RANK interacts with many TRAF molecules, including TRAF1, 2, 3, 5, and 6 (7-9, 11, 12). While TRAF1, 2, 3, and 5 interact with the c-terminal tail of receptor activator of NF-κB, TRAF6 interacts with a membrane proximal region of the cytoplasmic domain of the receptor activator of NF-κB. […]

[4] = molecular target: T2, TRAF2 binding to the cytoplasmic domain of RANK (Homo sapiens, UniProt Q12933); assay: Competitive GST-pull down assay, TRAF2 binding to RANK cytoplasmic domain; conditions: 100 μM peptide, FLAG-TRAF2 293 cell extract (FIG. 4C)
T2 construct: expressed in transfected cells; host or cells: human 293 cells (TRAF lysate); The GST-RANK fusion was purified as previously described
T2 sequence (Q12933 1-501): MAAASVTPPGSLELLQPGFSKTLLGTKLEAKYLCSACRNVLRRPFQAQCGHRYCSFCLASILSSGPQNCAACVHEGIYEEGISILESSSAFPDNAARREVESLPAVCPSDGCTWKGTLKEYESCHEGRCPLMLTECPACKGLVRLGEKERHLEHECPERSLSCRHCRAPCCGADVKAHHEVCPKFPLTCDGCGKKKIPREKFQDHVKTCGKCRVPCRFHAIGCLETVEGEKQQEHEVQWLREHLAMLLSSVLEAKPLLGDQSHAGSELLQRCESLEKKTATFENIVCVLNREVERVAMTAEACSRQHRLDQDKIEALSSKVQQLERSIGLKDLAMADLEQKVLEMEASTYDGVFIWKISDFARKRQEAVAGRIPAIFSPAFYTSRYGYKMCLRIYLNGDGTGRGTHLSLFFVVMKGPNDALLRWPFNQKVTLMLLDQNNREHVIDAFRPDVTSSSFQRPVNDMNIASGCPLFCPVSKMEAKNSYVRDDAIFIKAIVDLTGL
Procedure: as §2, §3, §4

[5] = molecular target: T3, TRAF5 binding to the cytoplasmic domain of RANK (Mus musculus, UniProt P70191); assay: Competitive GST-pull down assay, TRAF5 binding to RANK cytoplasmic domain; conditions: 100 μM peptide, FLAG-TRAF5 293 cell extract (FIG. 4C)
T3 construct: expressed in transfected cells; host or cells: human 293 cells (TRAF lysate); The GST-RANK fusion was purified as previously described
Procedure: as §2, §3, §4

T3 sequence (P70191 whole entry, the tested form may be a part): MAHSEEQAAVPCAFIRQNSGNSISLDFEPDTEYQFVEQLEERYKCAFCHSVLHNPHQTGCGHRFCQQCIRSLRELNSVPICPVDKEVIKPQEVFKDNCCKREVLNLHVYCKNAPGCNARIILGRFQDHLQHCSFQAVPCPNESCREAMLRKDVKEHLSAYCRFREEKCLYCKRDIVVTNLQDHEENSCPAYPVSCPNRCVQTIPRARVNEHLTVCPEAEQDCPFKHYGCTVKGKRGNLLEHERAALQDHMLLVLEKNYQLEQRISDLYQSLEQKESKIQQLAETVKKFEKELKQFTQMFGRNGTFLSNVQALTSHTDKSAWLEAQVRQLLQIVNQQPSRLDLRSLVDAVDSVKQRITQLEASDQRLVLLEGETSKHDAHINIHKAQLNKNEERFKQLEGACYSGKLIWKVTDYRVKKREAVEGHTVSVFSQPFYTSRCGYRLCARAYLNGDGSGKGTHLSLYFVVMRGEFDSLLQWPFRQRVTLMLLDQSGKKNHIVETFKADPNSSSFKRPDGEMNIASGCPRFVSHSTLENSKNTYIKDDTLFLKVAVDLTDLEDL

TRAF6 interaction with the cytoplasmic domain of RANK [3]: Only L-T6DP-1 inhibited
TRAF2 binding to the cytoplasmic domain of RANK [4]: neither L-T6DP-1 nor L-T6DP-2 inhibited
TRAF5 binding to the cytoplasmic domain of RANK [5]: neither L-T6DP-1 nor L-T6DP-2 inhibited
Substance: L-T6DP-2: Kaposi fibroblast growth factor signal sequence hydrophobic domain attached to murine RANK peptide containing a similar TRAF6-binding motif (AAVALLPAVLLALLAPFQEPLEVGE)
number of TRAP positive osteoclasts [1]: dose-dependent decrease
development of TRAP positive osteoclasts [2]: inhibited
